The values below come from patent publication US6645939 (MERCK, dated 2003).

For experiment [1], the target named is T1, VLA-4 (α4β1) on Jurkat cells, clone E6-1 (UniProt P13612 34-1032; P05556 21-798, limits assumed).
T1 construct: whole, on cells; Endogenous integrin on Jurkat cells; also called very late antigen-4; CD49d/CD29
As to the kind of experiment: radiolabeled VCAM-Ig (~100 pM) on Jurkat cells, 1 mM MnCl2, filter plates, scintillation counting. How it is done: (§1) Compounds of this invention were prepared in DMSO at 100× the desired final assay concentration. Final concentrations were selected from a range between 0.001 nM-100 μM. Jurkat cells were centrifuged at 400×g for five minutes and resuspended in binding buffer (25 mM HEPES, 150 mM NaCl, 3 mM KCl, 2 mM glucose, 0.1% bovine serum albumin, pH 7.4). The cells were centrifuged again and resuspended in binding buffer supplemented with MnCl_2 at a final concentration of 1 mM. […] The plates were incubated at room temperature for 30 minutes, filtered on a vacuum box, and washed on the same apparatus by the addition of 100 μL of binding buffer containing 1 mM MnCl_2. After insertion of the multiscreen plates into adapter plates (Packard, Meriden, Conn., cat# 6005178), 100 μL of Microscint-20 (Packard cat# 6013621) was added to each well. The plates were then sealed, placed on a shaker for 30 seconds, and counted on a Topcount microplate scintillation counter (Packard). Control wells containing DMSO alone were used to determine the level of VCAM-Ig binding corresponding to 0% inhibition. […] Percent inhibition was then calculated for each test well and the $IC50$ was determined from a ten point titration using a validated four parameter fit algorithm.

Experiment [2] addresses T2, α4β7 integrin on RPMI-8866 cells (human, UniProt P13612 34-1032; P26010 20-798).
T2 construct: whole, on cells; Endogenous integrin on RPMI-8866 cells; also called LPAM-1
As to the kind of experiment: radiolabeled VCAM-Ig (<500 pM) on RPMI-8866 cells, MnCl2, filter plates, scintillation counting. How it is done:
as §1, with “μM.” for “μM. Jurkat cells were centrifuged at 400×g for five minutes and resuspended in binding buffer (25 mM HEPES, 150 mM NaCl, 3 mM KCl, 2 mM glucose, 0.1% bovine serum albumin, pH 7.4). The cells were centrifuged again and resuspended in binding buffer supplemented with MnCl_2 at a final concentration of 1 mM.”, “45 minutes on a plate shaker at 200 rpm,” for “30 minutes,”, “1mM” for “1 mM”, “Coon.,” for “Conn.,”, “IC$50$” for “$IC50$”

T2 sequence (P13612 34-1032, chain 1 of 2): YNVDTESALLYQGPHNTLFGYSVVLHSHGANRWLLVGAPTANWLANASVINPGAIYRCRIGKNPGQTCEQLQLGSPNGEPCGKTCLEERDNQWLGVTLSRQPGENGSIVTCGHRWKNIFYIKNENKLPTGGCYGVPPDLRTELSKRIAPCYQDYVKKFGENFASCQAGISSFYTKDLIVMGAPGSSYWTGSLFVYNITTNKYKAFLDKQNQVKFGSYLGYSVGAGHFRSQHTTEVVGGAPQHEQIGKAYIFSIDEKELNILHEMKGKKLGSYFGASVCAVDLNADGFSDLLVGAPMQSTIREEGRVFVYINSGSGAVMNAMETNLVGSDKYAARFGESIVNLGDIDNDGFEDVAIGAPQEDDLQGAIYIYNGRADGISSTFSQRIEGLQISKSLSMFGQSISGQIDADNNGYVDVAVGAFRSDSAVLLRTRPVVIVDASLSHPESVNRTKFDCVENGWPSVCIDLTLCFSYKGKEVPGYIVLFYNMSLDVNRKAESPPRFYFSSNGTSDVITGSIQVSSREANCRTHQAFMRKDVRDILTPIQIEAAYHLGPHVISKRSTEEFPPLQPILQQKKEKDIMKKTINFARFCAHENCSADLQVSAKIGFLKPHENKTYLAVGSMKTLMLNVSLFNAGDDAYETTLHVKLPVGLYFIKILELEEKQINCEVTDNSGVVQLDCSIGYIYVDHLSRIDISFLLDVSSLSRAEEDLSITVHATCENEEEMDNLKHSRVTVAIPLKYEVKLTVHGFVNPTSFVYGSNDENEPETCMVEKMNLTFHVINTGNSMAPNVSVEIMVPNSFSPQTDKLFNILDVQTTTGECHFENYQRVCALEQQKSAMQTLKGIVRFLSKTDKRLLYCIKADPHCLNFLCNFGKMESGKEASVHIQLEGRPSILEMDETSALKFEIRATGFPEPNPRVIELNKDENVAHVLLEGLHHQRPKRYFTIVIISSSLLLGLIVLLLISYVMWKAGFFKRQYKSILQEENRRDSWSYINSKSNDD
T2 sequence (P26010 20-798, chain 2 of 2): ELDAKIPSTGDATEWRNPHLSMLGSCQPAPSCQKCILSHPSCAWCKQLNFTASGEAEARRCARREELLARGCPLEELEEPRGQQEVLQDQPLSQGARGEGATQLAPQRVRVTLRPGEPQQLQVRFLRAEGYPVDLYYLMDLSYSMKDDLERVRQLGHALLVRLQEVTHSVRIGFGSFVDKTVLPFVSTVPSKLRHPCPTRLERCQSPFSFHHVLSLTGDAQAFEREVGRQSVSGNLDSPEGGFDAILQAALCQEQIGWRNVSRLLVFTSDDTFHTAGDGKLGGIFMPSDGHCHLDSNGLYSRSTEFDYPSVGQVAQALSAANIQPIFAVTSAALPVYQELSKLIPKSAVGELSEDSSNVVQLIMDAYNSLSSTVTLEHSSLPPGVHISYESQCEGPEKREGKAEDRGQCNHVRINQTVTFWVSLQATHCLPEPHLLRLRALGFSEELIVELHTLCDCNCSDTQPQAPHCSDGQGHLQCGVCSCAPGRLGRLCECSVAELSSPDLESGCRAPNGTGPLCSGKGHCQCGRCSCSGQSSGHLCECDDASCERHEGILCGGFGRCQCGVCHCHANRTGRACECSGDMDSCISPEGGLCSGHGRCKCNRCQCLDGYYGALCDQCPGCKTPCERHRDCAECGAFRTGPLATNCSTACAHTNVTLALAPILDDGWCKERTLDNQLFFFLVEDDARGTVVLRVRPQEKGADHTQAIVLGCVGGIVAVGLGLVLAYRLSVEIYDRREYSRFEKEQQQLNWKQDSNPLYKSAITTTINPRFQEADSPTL
T1 sequence (P13612 34-1032 limits assumed, chain 1 of 2): as the sequence (P13612 34-1032, chain 1 of 2) above
T1 sequence (P05556 21-798 limits assumed, chain 2 of 2): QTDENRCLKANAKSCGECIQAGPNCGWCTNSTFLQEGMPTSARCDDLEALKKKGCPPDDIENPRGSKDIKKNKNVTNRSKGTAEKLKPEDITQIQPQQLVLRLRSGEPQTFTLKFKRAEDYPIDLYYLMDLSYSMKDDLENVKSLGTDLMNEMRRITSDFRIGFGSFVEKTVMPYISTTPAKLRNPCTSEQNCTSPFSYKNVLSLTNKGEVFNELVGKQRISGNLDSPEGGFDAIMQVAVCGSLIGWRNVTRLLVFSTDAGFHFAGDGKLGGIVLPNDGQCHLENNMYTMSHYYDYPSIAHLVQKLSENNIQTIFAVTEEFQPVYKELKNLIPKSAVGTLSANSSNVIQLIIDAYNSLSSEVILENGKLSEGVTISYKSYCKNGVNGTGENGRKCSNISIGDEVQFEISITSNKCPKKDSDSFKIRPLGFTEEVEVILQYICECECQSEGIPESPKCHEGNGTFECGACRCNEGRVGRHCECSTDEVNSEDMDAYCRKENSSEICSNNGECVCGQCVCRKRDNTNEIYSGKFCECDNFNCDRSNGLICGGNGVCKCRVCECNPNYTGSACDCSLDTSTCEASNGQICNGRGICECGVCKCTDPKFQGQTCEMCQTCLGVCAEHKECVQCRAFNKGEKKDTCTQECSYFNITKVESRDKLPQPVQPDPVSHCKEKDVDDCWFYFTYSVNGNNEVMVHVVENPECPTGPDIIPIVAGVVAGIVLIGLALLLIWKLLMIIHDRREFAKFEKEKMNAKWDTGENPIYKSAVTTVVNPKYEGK

B1: VCAM-Ig fusion protein (Fc fusion, not shown: small tags and cut ends)
chain: FKIETTPESRYLAQIGDSVSLTCSTTGCESPFFSWRTQIDSPLNGKVTNEGTTSTLTMNPVSFGNEHSYLCTATCESRKLEKGIQVEIYSFPKDPEIHLSGPLEAGKPITVKCSVADVYPFDRLEIDLLKGDHLMKSQEFLEDADRKSLETKSLEVTFTPVIEDIGKVLVCRAKLHIDEMDSVPTVRQAVKEL
modifications: labeled with 125I-Bolton Hunter reagent (sites not given)
For B1, the binding result in experiment [1] and in experiment [2] was “binds” in each case.
